The data set in a line: protease stability score; higher = more stable; yeast display proteolysis, trypsin and chymotrypsin.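 Note: log10 excess protease needed over predicted unfolded state with 0 meaning unfolded.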
For “DEDANENIRKQLEWEEKGNPQQAKKQADPNAQFNIGDHTFNGMDEYMHWVKRELTHLRIEIKDVKFDVQGEKIEIDVRFVVDENGRPKEDRQDFDVTMHNGHIHNINVDKIS”, the protease stability score was -0.21.

Turning to “DDEDADKAQRILETGNPDEMDKLLDKDVRVVVGDKEYKGREQVSEFFRRLLEQVDTITFLSVEIHNGTVQARVLVNVNGHNVDVVFQFVVHNGKLKHAKVEARNEEEQKKLDRALS”, the protease stability score worked out at 1.55.

Consider “EDELRTMVDQVMEAQKTGDFDKFIEQFDPNAHRRVGDKEVEGQEEMRHEQKRRDDNIRVDYNRMSVQVSNGVAKLTVHLNAHVNGKPVRLTIDIVFHARNGRFQSMQVDFTREQEKRKRS”, for which the protease stability score was -0.213.

“DEEHLKRVNETVMDIVKNNDPNQLREMVDPNVKVDVGDQRVHGRDKAAEVVKEWEKHVDRVTIRHVSVHNGRVRVVFQLESNGKTKDVQILFVYENGRIHSMRFTSQ” had a protease stability score of 0.933.

For the sequence “DEDQQRKWEDWERHLRQNNEEKLVEMFDPNAKWVIGDKRWHGMEEAASKLATRVKNLHIEIRSMRVKVDGDTVEIDVLVTYTHNGQPSEKREILYIHAHNGEVKKVHFEDRE”, the protease stability score stood at 0.412.

For the sequence “DERKVDVARNVAKAILTNDPDRAMSMVDKDVTVVIGDKEINGHEDFREHIEKQSKEAKLDMRSVDADNRGDKAVLTLDYQIDYNGKPMRDTQTIEVHVTNGRVKELRVRVDESLKRDLKS”, the protease stability score is -0.28.

In the case of “DETNKEQFDRLLKHQKTGNPQEVVKNADPNVKMRIGNKTWHGRENINQDVERRRRKMRIDINVKSVDSHGEELRIDARVQYNINGKPLEDDVVIIAEVHNGKFKHIEVRIPERMQKKLER”, the protease stability score is 0.637.

The sequence “DEKQMEQVNKNMETGDWDKLQEQADEDVRLVVGEREFHGREQFSEFAKQAKRMVDDNTIHRIDLQGEKVKIKFVIKHNGRTVDVTVVMEVHNGRIKRYVLRARDEDAEDIIRKMLS” had a protease stability score of 0.902.

In the case of “DQRERVKKLFDRFQHNIKHGDKSKATNQFPPDVTMSIGDEDLHGRDAAKRYADNVANNADRFHHEIQDYKQKGNNANLRVKIVLNHNGTNHSHEADWVAVVHNGQARLKEVKFD”, the protease stability score was -0.078.

The sequence “DEEKRAEDFFRKLLQVMETGDEDKQRKMADPNARVIIGEKTFHGRENMAKAMKELRDRVDSIEFDLREIETEPGRIVINVVVILDHDGDKDERELNIRAKITGDTLVLEEIKDT” yielded a protease stability score of -0.309.

With “DERVADQFVRALRTNDEEQLVRLMDEDAKMRVGEKEIHGRESVQTYLRRFAQQADHVDIHHVHIQGDKVSIDAVVEFNGKRVRFSMQFTVEGEKVKDVTIEARDEDDKRKLDEIFR”, the protease stability score is 1.79.

Turning to “DERNLRVVKHFWHAVRTGDPEEVKRQADKHVRVRIGDKHIEGRETLAHEVREEKNQLENDIQIRDIKVQGDRVHMRVVVVFNIDGRPQSVQITVEAKAHNGKLQSMSQEVPEEVLHEIEK”, the protease stability score was determined as 0.021.

With “DEERVKDLVKKIFKDIRNGDEERVRKKGKPDVKYEYADKTFEGEDAVRFIVEILKKVGAEDKTQNETVHGDKAQANFQYDKGDQTAQTTAQVEYKGDKVDKMRVKISEEVKKVVEQG”, the protease stability score is -0.116.

Take “DDEKLAREFQEKLREALRSGDDKKMVELMDKDARVVVGDKEIQGREEIAKTWATKATQADHVEVHIRNLRVENGRVTVNVEVRLNNNGQDRTNNNTLQNEVHNGHIHMKRQKEN”: the protease stability score was -0.274.

Regarding “DEERVKQLAEKVFKYVIKGDKDEVRKQGKPDVKYKYIDKEYEGPDALEKAVKLVKRLGMKAETKELKVKGNTVRAKFEYRKGDQTMKTEVEVHYEGDVVKEAKVKISDEVKKFVHQG”, the protease stability score worked out at 0.309.

In turn, “DERAVKRMEKFIKVLINGNPDDLKEYLDENVKVDVGDKRIHGRETFMNEAEKDKRQMSVSLKEVRVDAHNGRLQVNARVHINHNGTPRDKEYVMQAILHNGRIKSMRVQSTG” registered a protease stability score of 0.835.

The sequence “DEEARNVFEEILKAIRHGDPDHAKNLADPNARIRVGDKKVDGMEQWATEMHHNWQEIRIHMRITSVDHQGEKVRLHLSRTSNHNGRPRKADIDLEMVATNGKLKSQKHSQKK” yielded a protease stability score of 0.2.

The sequence “DEQEQAEELAKKMMENMETGDFDKRANQADPDARMEIGDKDVRGRETIASHQRELSDHIDHANATVLEVRVSNGDVEVRMQFRVQHNGRSRQEERIINATISGDKMRIKEFTQS” displayed a protease stability score of -0.116.

As for “DERAKEQMKNFQQAVSEGDPDQFRELMDKDARMVIGDQQLHGREKMMHQWQRLTRRIRREVKSVDVQVRGDTAELDIHFEQRKDGQPTKNSAVLEAVVHNGKVKELRVKNKR”, the protease stability score worked out at 0.078.

In turn, “DEEEAKKNVKVWEQNDPDTFNKLVDKDAKAVIGDKEVHGRSEINRIIKRLLQQADHWQVDEVHIHNGRVHISYQFVINGQRLDVRVTIELRNGRIKDVKVHFTDDEQKKRANENVR” displayed a protease stability score of 0.943.

Turning to “DHTIDEVFKQFETAKNDNDPDQLKKNADPNVDYTVGDQFVEGREHAADDIRRRREQQRNEIRSLRHSVQGNDIDVSVDMEVEHNGKPSDFTQRIDVVAHNGKIKHQTAHQEG”, the protease stability score is -0.505.

As to “DEDDLRRAQKDLQQNDFHKIARDADENVRVRIGDTTYHGRETLISFLKEMQDRADHVSIKHISVEGDKITADFEMQVDGKTDTFDLFIVVHNGRYQHVHFEVRSEDFSKFMREIES”, the protease stability score was 1.02.

Take “DEKEVQKVLETMAKMFVNGNNEEVKKLGHDDIQVQYGDEEKHGPDAMVDFIKKYQDLGAEVEYKHLKVEGNEVEVDVEATLGGKTVRYKVKYEATGHKVHRVEVKYTDEAKDAIKKG”: the protease stability score stood at 0.657.

As for “DEEVANTAVKVAQTGDFQQMVEHADPNVRAVVGDKEYHGREQFQEAMTIIRERVDHYHVDKITIEGDDVRVDMQIDFNGRRVRAEVSIRASNGRIKEMHINARDEDDHRTLRKLLK”, the protease stability score was determined as 0.432.

Regarding “DESLRKLLERIWRALTSGDPDELRKLADEDAKFQIGDKRINGMNEAAERWATRVRQLRVRIEDVKQHVEGDKVEAHLDVVREKNGQPQKHEEHVRMRAEGDRAKELVIQISQ”, the protease stability score is 0.031.

Take “DETIHDQAQRFFRDVQTGDEENIHKYFDPNARFVVGDKDLHGMSEVAEDLARKWNEWRVDVRDYRIKVHNGRIEVHIDARFDHDGQPEDRSEVVVYTMKNGQVQMVEFHKQG”: the protease stability score worked out at 0.464.

As to “DERQNSQLHRQIEQAKQGDEEKVRQQMDENARARYGDKEVHGRTELARQQVRQWNEAKIDIEFKRVSAHENEIRVNVVMQFDVDGRPNRSTWTFKVRFHNGTIKQINAEIDPDEWDTLLK”, the protease stability score was 0.506.

Take “EDEEAEKLSEIQRTGDEERIARNADPNVRVNVGDKRVHGREHLVSIAKRLSKNVDSLEIKHVEIQGERMVVRFVMQVNGKHIHAEMEIQMSNGRITSRNQRYTSEDVEQNWRDAVD”: the protease stability score was determined as 0.255.

Sequence “DEDEARKVMKKWQEVVQKGDPDDVRKLYKPNVKWEAADTRRQGVDVVVEQMKKVQDKGVEFQVRKAKVEGDRFQVVYDVKLGNDTATFTVQVEARGGQIDEVRAKVDEKAYKVMKKG” registered a protease stability score of 0.123.

“DENETAKDILKELVDILKNGDEDSFARMFDENARITVGDKTYTGRDEVRKYASQIHRRVDHIDVKLKSVTTNNGRIEVSARFVFQVDGKEDDRIFRLVVRKKGDKWVIERQSLE” returned a protease stability score of 1.64.

Sequence “DEEEIRMILDVIRARESGDEDRLHELLDKDVEFQVGEKTYHGREEIVRQVLQERREMQYSVNVKTVRDHNGVADIKAEFHFLYNGRPMNIDVEIHAHAHNGSVVNFRVRVDPKQMDDFKT” had a protease stability score of 1.26.

As for “EEESAQEFMKNLNTGNFEELNKMADENARMQVGDKTFQGRHQIETLLKTLKKQIDHVSFKSVEMNGDKVDAKVVFQVNGQHFEVIVKVDVRGDRVTHVTYEFTNEDQEERFKRAVQ”, the protease stability score stood at 1.35.

In turn, “DEEHDEKVARSVARNITHGNEKSLRKQLPEDARVVYGDKTYHGRERAANVAKEFDERADHNRVDDLRVQNGRAELIFIVNVDGKNVRAVMIVDVHNGKAKLVMIKWTNPDDQRDLEK” came in with a protease stability score of 0.159.

Regarding “DEDASRHVRDMIRALQTGDRDKVARYIDPNATMQVGDKRYHGNERIKEQVKRTKDTMRYHMEIKDVHVEGDHIKVDFTFSNNKNGTPTSDRAQIDIRMTNGHATSIVLHNNK”, the protease stability score was -0.001.

Consider “DEDLMTQIVKRYIDAWREGDRDELMKLADENVHIQVGDQTYHGQEQWRELVKKHKDNADHMDVKSWNIRGEKVHVHYWARFNGVEIEDTVEIQYENGRIIDIQFDPDQQRKEDK”, for which the protease stability score stood at 0.676.

As to “DEEKNRTAARRAAEVLRTNDPDEMSKLADKDATARIGDKHFHGKETLKEAMEELKRQVDHLRVESFRLDGDKIVITAVMSHNGKKQKIVVVAEVENGKVVDFKMDPDQVTRMQK”, the protease stability score stood at 0.532.

In the case of “DEETIRHEARKFQEDMKDGNHDEAVKYAPPNVKIQIGDKTFHGREQMKRFFKELRDEIDHVDLEHVTFHNGRLRVEVRFKINGQDFQVVFYFNYHNGQIENFKVQYRNEEEQQKVEG”, the protease stability score stood at 0.182.

In turn, “DRERRHEFATEVVENLKQGDWKRLVEQADKDVTADIGDTKYKGRETFSKWAQQFVRRVDRVEIVDMRLDGDEVRINMDVKHNGQTRRSVFIARWHNGRIKHFRIETG” registered a protease stability score of 1.62.

Sequence “DDDLKRKVHKFVEDWKDGDPHRLNHMADEDVRFQVGDKEIHGRKQMHEEVDKEKKEMRRHIDHLELDNQGNTVRVRFELTFTHNGKPFKVDVTIDMEFDGDRLKQAVQRVPREDQTKVKN” gave a protease stability score of -0.209.

With “DEEEAQKFRKHAKSNDQDNMRRMMDEDVRVIVGDFEVQGREDAEENLLRLNQRVDHISVKSIDVQGEHVTVDVEMTIDGTKFVVVYVVQFHNGRIKQLDLRARDEKDEKAFRRAVG”, the protease stability score is 0.234.

In turn, “DEEQVKKVLETLVKALQKGNIEEILKMLKEDVEFVLIDEKYQGREDAKKIVKQLVDQGMEVHFDRHEVTGNQAHVQTRWHYGNKEAHAEVTYYVKGDTVDKVDIQWSETAKKAVKEG” registered a protease stability score of 1.13.

“DETEKADQMVHDLEEAIKTGDPDEISNQADPNVSFHYGDKTFHGREKLAEWFLELQKRVDHMHLDIKDIEVQGDKATITMQMVLDKNGDDERKDIRVEAQYHNGRLTISFAEAR” came in with a protease stability score of 2.15.

Take “DEDRMTEAEKILKENNPDQMRDLFDENAKAEIGDNDLHGREHIVEEQRRYNEKVDHVQYHSVTFSNGKMRFDVRASVNGKKFRFQAEFHLDNGKIKHIKIDFRDEEDEKEFKRVVG”: the protease stability score is 0.66.

In turn, “DEKKAEEVATRVLEYIRDGNADDVKKLGKEGGQVQLGDTQLNGVDQLYKYVQDFHKQGIHVEYKEHEAKGDTVTFHTTARRGDAQIEFEVHYVVKGDVVERMEVRQDRKQVKEFKDS” displayed a protease stability score of -0.084.

As to “DEKVKELFKRLLRALHTGDEEQARRLVDPNARIQVGDQRYHGMDEALRQMLHNMQDIEVSQRYIEVDVSGDRVHYRAEVEKTHNGKPEREQYSATVHAHNGKVVQVEMHTDK”, the protease stability score was 0.069.

As for “DDEVAKTIVKNWKTGDPDRLNEMFDPNARIRIGNQDVHGHEEVKKMLHKFFTAIDSIDIKRVSVHNGRIDIDVRAHFNGRSFRFVLHIVVEDGRVKHMEMKVTDPDSQRELEKHQK”, the protease stability score worked out at 1.35.

“DENDVKRVLDKLKDNNWEDLVKLMDKDARVEIGDHTIHGRENVHQWMSTIEKQVDHFQIDTMTVKGDTLDANVRMVVNGRKIVFRLKVSLKNGRITRIRFQATDEEQHQQIRQMLR”: the protease stability score stood at 1.29.

The values are drawn from the NTF2 design screens of Basanta et al. (2020).
